From US20110165161A1, “ANTI-EPCAM ANTIBODIES THAT INDUCE APOPTOSIS OF CANCER CELLS AND METHODS USING SAME” (priority 2009, published 2011)

Columns and labels:
[1] = target: T1, human EpCAM (epithelial cell adhesion/activating molecule) (human, UniProt P16422 24-314); test: cell-based or functional assay
T1 sequence: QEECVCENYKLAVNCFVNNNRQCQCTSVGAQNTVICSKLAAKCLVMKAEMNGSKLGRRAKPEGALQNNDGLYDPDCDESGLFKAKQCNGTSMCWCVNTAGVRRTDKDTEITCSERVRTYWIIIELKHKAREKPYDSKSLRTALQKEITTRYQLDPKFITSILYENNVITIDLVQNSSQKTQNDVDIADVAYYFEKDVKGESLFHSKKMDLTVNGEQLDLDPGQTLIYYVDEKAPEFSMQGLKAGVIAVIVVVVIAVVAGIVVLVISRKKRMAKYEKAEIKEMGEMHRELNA

[2] = target: T1, human EpCAM (epithelial cell …); test: cell-based or functional assay; remark: listed apart in the source
[3] = target: T1, human EpCAM (epithelial cell …); test: flow cytometry, CHO/EpCAM cells, 0.1 µg/ml antibody
Procedure: A 300× dilution of human cell hyper-immune serum (HPS 300×) was used as binding positive control for both cell lines here. After 1 hr incubation at 4° C., cells were washed twice with 200 μl FACS buffer (1×PBS containing 1% FBS), stained with 100 μl of 1 μg/ml goat-anti-mouse IgG-PE (Southern Biotech, Cat. No. 1032-09) in FACS buffer and then incubated at 4° C. for 30 min. Cells were washed thrice with FACS buffer and analyzed by flow cytometry (BD LSR, BD Life Sciences).

[4] = target: T2, EGFI-Cr1 wild type (first EGF-like repeat of human EpCAM fused to the constant region of human immunoglobulin … (human, UniProt P01857-1 99-330 = IgG part)); test: direct ELISA, coated EGFI-Cr1 fusion, 0.1 µg/ml antibody
T2 construct: cDNA covered aa 1-63; Expressed in COS-7 cells; also called WT; EpCAM EGF-1 fusion protein WT
Procedure: (§1) A direct ELISA was used for testing the reactivity of anti-EpCAM antibodies toward variant EpCAM mutants. Briefly, purified EpCAM EGF-1 fusion proteins (WT, Q24A, E25K, E26D, A35T, N37R, F39A, V40E, N41A, N42E, N43A, R44G, Q45A, Q47A or T49A) and irrelevant control (CEA-Cr1) were pre-diluted to 0.5 μg/ml in coating buffer (8.4 g NaHCO₃, 3.4 g Na₂CO₃ in 1 L H₂O, pH 9.5) and aliquoted (100 μl/well) into 96-well plates. […] Plates were then washed 3 times with PBST followed by the addition of the enzyme substrate TMB (BD Biosciences, Cat. No. 555214). […] The optical densities at 450 nm wavelength were measured on an ELISA plate reader.

[5] = target: T3, EGFI-Cr1 Q24A (human, UniProt P16422 25-63); test: as above
T3 construct: not shown: The fused constant region of human immunoglobulin gamma 1 heavy chain (Cr1)
T3 chain: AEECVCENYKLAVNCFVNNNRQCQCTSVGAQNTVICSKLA
Procedure: as §1

[6] = target: T4, EGFI-Cr1 T49A (human, UniProt P16422 24-63); test: as above
T4 construct: not shown: the constant region of human immunoglobulin gamma 1 heavy chain (Cr1) fused at the C-terminus
T4 chain: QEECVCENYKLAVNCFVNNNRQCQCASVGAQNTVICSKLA
Procedure: as §1

[7] = target: T5, EGFI-Cr1 E25K (human, UniProt P16422 24-63); test: as above
T5 construct: not shown: The fused constant region of human immunoglobulin gamma 1 heavy chain (Cr1)
T5 chain: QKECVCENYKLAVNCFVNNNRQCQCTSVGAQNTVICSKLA
Procedure: as §1

[8] = target: T6, EGFI-Cr1 F39A (human, UniProt P16422 24-63); test: as above
T6 construct: not shown: The fused constant region of human immunoglobulin gamma 1 heavy chain (Cr1)
T6 chain: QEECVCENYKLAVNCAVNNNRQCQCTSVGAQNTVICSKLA
Procedure: as §1

[9] = target: T7, EGFI-Cr1 Q47A (human, UniProt P16422 24-63); test: as above
T7 construct: not shown: the constant region of human immunoglobulin gamma 1 heavy chain (Cr1) fused at the C-terminus
T7 chain: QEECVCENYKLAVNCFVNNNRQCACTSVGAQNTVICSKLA
Procedure: as §1

[10] = target: T8, EGFI-Cr1 A35T (human, UniProt P16422 24-63); test: as above
T8 construct: not shown: The fused constant region of human immunoglobulin gamma 1 heavy chain (Cr1)
T8 chain: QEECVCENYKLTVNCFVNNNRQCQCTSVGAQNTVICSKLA
Procedure: as §1

[11] = target: T9, EGFI-Cr1 N42E (human, UniProt P16422 24-63); test: as above
T9 construct: not shown: the constant region of human immunoglobulin gamma 1 heavy chain (Cr1) fused at the C-terminus
T9 chain: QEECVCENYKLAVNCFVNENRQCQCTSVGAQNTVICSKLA
Procedure: as §1

[12] = target: T10, EGFI-Cr1 N41A (human, UniProt P16422 24-63); test: as above
T10 construct: not shown: The fused constant region of human immunoglobulin gamma 1 heavy chain (Cr1)
T10 chain: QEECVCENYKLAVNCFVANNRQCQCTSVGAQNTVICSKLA
Procedure: as §1

[13] = target: T11, EGFI-Cr1 N37R (human); test: as above
T11 construct: not shown: The fused constant region of human immunoglobulin gamma 1 heavy chain (Cr1)
T11 chain: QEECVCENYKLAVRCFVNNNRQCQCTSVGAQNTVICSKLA
Procedure: as §1

[14] = target: T12, EGFI-Cr1 R44G (human, UniProt P16422 24-63); test: as above
T12 construct: not shown: the constant region of human immunoglobulin gamma 1 heavy chain (Cr1) fused at the C-terminus
T12 chain: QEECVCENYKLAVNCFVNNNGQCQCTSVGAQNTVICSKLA
Procedure: as §1

[15] = target: T13, EGFI-Cr1 Q45A (human, UniProt P16422 24-63); test: as above
T13 construct: not shown: the constant region of human immunoglobulin gamma 1 heavy chain (Cr1) fused at the C-terminus
T13 chain: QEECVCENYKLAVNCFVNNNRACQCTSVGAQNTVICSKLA
Procedure: as §1

[16] = target: T14, EGFI-Cr1 N43A (human, UniProt P16422 24-63); test: as above
T14 construct: not shown: the constant region of human immunoglobulin gamma 1 heavy chain (Cr1) fused at the C-terminus
T14 chain: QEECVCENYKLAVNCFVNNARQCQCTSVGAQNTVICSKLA
Procedure: as §1

[17] = target: T15, EGFI-Cr1 E26D (human, UniProt P16422 24-63); test: as above
T15 construct: not shown: The fused constant region of human immunoglobulin gamma 1 heavy chain (Cr1)
T15 chain: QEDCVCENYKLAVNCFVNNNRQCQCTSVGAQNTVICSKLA
Procedure: as §1

[18] = target: T16, EGFI-Cr1 V40E (human); test: as above
T16 construct: not shown: The fused constant region of human immunoglobulin gamma 1 heavy chain (Cr1)
T16 chain: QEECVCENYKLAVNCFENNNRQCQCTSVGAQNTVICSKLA
Procedure: as §1

% of Annexin V + PI staining (untreated background subtracted), NCI-H358, 10 µg/ml mAb, Exp1 [1]: 45% | % of Annexin V + PI staining (untreated background subtracted), NCI-H358, 10 µg/ml mAb, Exp2 [1]: 40% | % of Annexin V + PI staining (untreated background subtracted), NCI-H358, 10 µg/ml mAb, Exp3 [1]: 44% | % of Annexin V + PI staining (untreated background subtracted), NCI-H358, 10 µg/ml mAb, Exp4 [1]: 43% | % of Annexin V + PI staining (untreated background subtracted), NCI-H358, 10 µg/ml mAb, Exp5 [1]: 40% | % Annexin V/PI-positive cells, DLD-1, 1.0 µg/ml mAb [2]: 28% | % Annexin V/PI-positive cells, DLD-1, 3.0 µg/ml mAb [2]: 53% | % Annexin V/PI-positive cells, DLD-1, 10 µg/ml mAb [2]: 62% | % Annexin V/PI-positive cells, FaDu, 1.0 µg/ml mAb [2]: 26% | % Annexin V/PI-positive cells, FaDu, 3.0 µg/ml mAb [2]: 39% | % Annexin V/PI-positive cells, FaDu, 10 µg/ml mAb [2]: 37% | % Annexin V/PI-positive cells, LNCaP, 1.0 µg/ml mAb [2]: 38% | % Annexin V/PI-positive cells, LNCaP, 3.0 µg/ml mAb [2]: 43% | % Annexin V/PI-positive cells, LNCaP, 10 µg/ml mAb [2]: 44% | % Annexin V/PI-positive cells, NCI-H520, 1.0 µg/ml mAb [2]: 38% | % Annexin V/PI-positive cells, NCI-H520, 3.0 µg/ml mAb [2]: 42% | % Annexin V/PI-positive cells, NCI-H520, 10 µg/ml mAb [2]: 49% | % Annexin V/PI-positive cells, NCI-N87, 1.0 µg/ml mAb [2]: 41% | % Annexin V/PI-positive cells, NCI-N87, 3.0 µg/ml mAb [2]: 51% | % Annexin V/PI-positive cells, NCI-N87, 10 µg/ml mAb [2]: 57% | % Annexin V/PI-positive cells, NIH:OVCAR-3, 1.0 µg/ml mAb [2]: 46% | % Annexin V/PI-positive cells, NIH:OVCAR-3, 3.0 µg/ml mAb [2]: 52% | % Annexin V/PI-positive cells, NIH:OVCAR-3, 10 µg/ml mAb [2]: 55% | % Annexin V/PI-positive cells, T-47D, 1.0 µg/ml mAb [2]: 25% | % Annexin V/PI-positive cells, T-47D, 3.0 µg/ml mAb [2]: 40% | % Annexin V/PI-positive cells, T-47D, 10 µg/ml mAb [2]: 44% | MFI [3]: 1350 MFI | relative binding activity (% of WT) [4]: 100% | relative binding activity (% of WT) [5]: 47% | relative binding activity (% of WT) [6]: 67% | relative binding activity (% of WT) [7]: 4% | relative binding activity (% of WT) [8]: 23% | relative binding activity (% of WT) [9]: 33% | relative binding activity (% of WT) [10]: 39% | relative binding activity (% of WT) [11]: 83% | relative binding activity (% of WT) [12]: 2% | relative binding activity (% of WT) [13]: 69% | relative binding activity (% of WT) [14]: 2% | relative binding activity (% of WT) [15]: 8% | relative binding activity (% of WT) [16]: 65% | relative binding activity (% of WT) [17]: 57% | relative binding activity (% of WT) [18]: 2%
B1: murine monoclonal antibody 6D11 (antibody, mouse IgG1, V domains shown)
VH: EVQLVESGGDLVKPGGSLKLSCAASGFAFDSYGMSWIRQTPGTRLEWVATISSGGYYTYYEDNVKGRFIISRDNAKNTLDLQMSGLKSEDAATYYCARRGNYDVDYYAMDYWGQGTSVIVSS
VL: DVVLTQIPLSLPVSLGDQASISCRSSQSLEHSNGNTYLHWYLQKPGQSPKLLIYKVSNRFSGVPDRFSGSGSGTDFTLKISRVEAEDLGVYFCSQSTHVPPWTFGGGTKLEFKR
notes: Mouse IgG1, kappa, from hybridoma; also called m338-6D11.8
